± gives the standard deviation of the averaged measurements.
Assays:
[1] = tested on: MCF7; assay: percentage of EdU-negative (G0-arrested) nuclei per well, 72 h; higher = more G0 arrest; conditions: reference: sequence is the full UniProt precursor, the tested protein was the secreted form or ectodomain
[2] = tested on: hTERT-HMEC; assay: as above; conditions: reference: sequence is the full UniProt precursor, the tested protein was the secreted form or ectodomain
[3] = protein concentration 0.02775 µM
[4] = protein concentration 0.2775 µM
[5] = protein concentration 0.03125 µM
[6] = protein concentration 0.3125 µM
[7] = protein concentration 0.021325 µM
[8] = protein concentration 0.21325 µM
[9] = protein concentration 0.0225 µM
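Further: secreted proteins added to cultured cells, EdU pulse at the end, nuclei found by Hoechst imaging, EdU status from nuclear versus surrounding ring intensity ratio, PBS as neutral control.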

## MRFFCARCCSFGPEMPAVQLLLLACLVWDVGARTAQLRKANDQSGRCQYTFSVASPNESSCPEQSQAMSVIHNLQRDSSTQRLDLEATKARLSSLESLLHQLTLDQAARPQETQEGLQRELGTLRRERDQLETQTRELETAYSNLLRDKSVLEEEKKRLRQENENLARRLESSSQEVARLRRGQCPQTRDTARAVPPGSREVSTWNLDTLAFQELKSELTEVPASRILKESPSGYLRSGEGDTGCGELVWVGEPLTLRTAETITGKYGVWMRDPKPTYPYTQETTWRIDTVGTDVRQVFEYDLISQFMQGYPSKVHILPRPLESTGAVVYSGSLYFQGAESRTVIRYELNTETVKAEKEIPGAGYHGQFPYSWGGYTDIDLAVDEAGLWVIYSTDEAKGAIVLSKLNPENLELEQTWETNIRKQSVANAFIICGTLYTVSSYTSADATVNFAYDTGTGISKTLTIPFKNRYKYSSMIDYNPLEKKLFAWDNLNMVTYDIKLSKM
[1]; [3]
  percentage of EdU-negative: 23.1 ± 3.6%
[1]; [4]
  percentage of EdU-negative: 22.8 ± 0.49%
[2]; [3]
  percentage of EdU-negative: 5.22 ± 0.79%
[2]; [4]
  percentage of EdU-negative: 5.83 ± 0.68%

## MAGPATQSPMKLMALQLLLWHSALWTVQEATPLGPASSLPQSFLLKCLEQVRKIQGDGAALQEKLVSECATYKLCHPEELVLLGHSLGIPWAPLSSCPSQALQLAGCLSQLHSGLFLYQGLLQALEGISPELGPTLDTLQLDVADFATTIWQQMEELGMAPALQPTQGAMPAFASAFQRRAGGVLVASHLQSFLEVSYRVLRHLAQP
[1]; [5]
  percentage of EdU-negative: 25 ± 0.82%
[1]; [6]
  percentage of EdU-negative: 27.5 ± 0.74%
[2]; [5]
  percentage of EdU-negative: 5.19 ± 0.94%
[2]; [6]
  percentage of EdU-negative: 9.86 ± 1.2%

## MTAPGAAGRCPPTTWLGSLLLLVCLLASRSITEEVSEYCSHMIGSGHLQSLQRLIDSQMETSCQITFEFVDQEQLKDPVCYLKKAFLLVQDIMEDTMRFRDNTPNAIAIVQLQELSLRLKSCFTKDYEEHDKACVRTFYETPLQLLEKVKNVFNETKNLLDKDWNIFSKNCNNSFAECSSQDVVTKPDCNCLYPKAIPSSDPASVSPHQPLAPSMAPVAGLTWEDSEGTEGSSLLPGEQPLHTVDPGSAKQRPPRSTCQSFEPPETPVVKDSTIGGSPQPRPSVGAFNPGMEDILDSAMGTNWVPEEASGEASEIPVPQGTELSPSRPGGGSMQTEPARPSNFLSASSPLPASAKGQQPADVTGTALPRVGPVRPTGQDWNHTPQKTDHPSALLRDPPEPGSPRISSLRPQGLSNPSTLSAQPQLSRSHSSGSVLPLGELEGRRSTRDRRSPAEPEGGPASEGAARPLPRFNSVPLTDTGHERQSEGSFSPQLQESVFHLLVPSVILVLLAVGGLLFYRWRRRSHQEPQRADSPLEQPEGSPLTQDDRQVELPV
[1]; [7]
  percentage of EdU-negative: 21.9 ± 1.2%
[1]; [5]
  percentage of EdU-negative: 26.7 ± 0.3%
[1]; [8]
  percentage of EdU-negative: 27.6 ± 1.4%
[1]; [6]
  percentage of EdU-negative: 26 ± 0.57%
[2]; [7]
  percentage of EdU-negative: 5.8 ± 0.14%
[2]; [5]
  percentage of EdU-negative: 4.68 ± 0.61%
[2]; [8]
  percentage of EdU-negative: 6.92 ± 1.3%
[2]; [6]
  percentage of EdU-negative: 6.12 ± 1.1%

## MQRVSGLLSWTLSRVLWLSGLSEPGAARQPRIMEEKALEVYDLIRTIRDPEKPNTLEELEVVSESCVEVQEINEEEYLVIIRFTPTVPHCSLATLIGLCLRVKLQRCLPFKHKLEIYISEGTHSTEEDINKQINDKERVAAAMENPNLREIVEQCVLEPD [Q9H5X1]
[1]; [9]
  percentage of EdU-negative: 24.6 ± 0.36%
[1]; protein concentration 0.225 µM
  percentage of EdU-negative: 26.4 ± 0.66%
[2]; [9]
  percentage of EdU-negative: 5.26 ± 0.84%
[2]; protein concentration 0.225 µM
  percentage of EdU-negative: 5.56 ± 0.12%

## MLAPGSSPGQRGRLALQWRQVSWITCWIALYAVEALPTCPFSCKCDSRSLEVDCSGLGLTTVPPDVPAATRTLLLLNNKLSALPSWAFANLSSLQRLDLSNNFLDRLPRSIFGDLTNLTELQLRNNSIRTLDRDLLRHSPLLRHLDLSINGLAQLPPGLFDGLLALRSLSLRSNRLQNLDRLTFEPLANLQLLQVGDNPWECDCNLREFKHWMEWFSYRGGRLDQLACTLPKELRGKDMRMVPMEMFNYCSQLEDENSSAGLDIPGPPCTKASPEPAKPKPGAEPEPEPSTACPQKQRHRPASVRRAMGTVIIAGVVCGVVCIMMVVAAAYGCIYASLMAKYHRELKKRQPLMGDPEGEHEDQKQISSVA [Q8N967]
[1]; [5]
  percentage of EdU-negative: 25.5 ± 0.63%
[1]; [6]
  percentage of EdU-negative: 25.5 ± 2.5%
[2]; [5]
  percentage of EdU-negative: 5.33 ± 1%
[2]; [6]
  percentage of EdU-negative: 5.93 ± 0.73%

## MLDWRLASAHFILAVTLTLWSSGKVLSVDVTTTEAFDSGVIDVQSTPTVREEKSATDLTAKLLLLDELVSLENDVIETKKKRSFSGFGSPLDRLSAGSVDHKGKQRKVVDHPKRRFGIPMDRIGRNRLSNSRG
[1]; [9]
  percentage of EdU-negative: 23.9 ± 2%
[1]; protein concentration 0.225 µM
  percentage of EdU-negative: 24.2 ± 1.3%
[2]; [9]
  percentage of EdU-negative: 5.01 ± 0.71%
[2]; protein concentration 0.225 µM
  percentage of EdU-negative: 5.5 ± 0.22%

Source: the supplement of paper PMC11316812
